Source: US20260152546A1
Numbering of substitutions follows the chain as printed. Like-named read-outs stand apart in the source and are kept apart here.

B1: PGT145 (antibody, V domains shown)
VH: QVQLVQSGAEVKKPGSSVKVSCKASGNSFSNHDVHWVRQATGQGLEWMGWMSHEGDKTGLAQKFQGRVTITRDSGASTVYMELRGLTADDTAIYYCLTGSKHRLRDYFLYNEYGPNYEEWGDYLATLDVWGHGTAVTVSS
VL: EVVITQSPLFLPVTPGEAASLSCKCSHSLQHSTGANYLAWYLQRPGQTPRLLIHLATHRASGVPDRFSGSGSGTDFTLKISRVESDDVGTYYCMQGLHSPWTFGQGTKVEIKR
B2: PG9RSH N(100f)Y (antibody, V domains shown)
VH: ERLVESGGGVVQPGSSLRLSCAASGFDFSRQGMHWVRQAPGQGLEWVAFIKYDGSEKYHADSVWGRLSISRDNSKDTLYLQMNSLRVEDTATYFCVREAGGPDYRNGYYYYDFYDGYYNYHYMDVWGKGTTVTVSS
VL: QSALTQPASVSGSPGQSITISCQGTSNDVGGYESVSWYQQHPGKAPKVVIYDVSKRPSGVSNRFSGSKSGNTASLTISGLQAEDEGDYYCKSLTSRSHRVFGTGTKLTVLG
B3: PG9RSH Y(100k)D (antibody, V domains shown)
VH: B2 VH with Y109N, Y114D
VL: B2 VL

Experiments:
[1] = molecular target: HIV-1 Env of the BG505 strain (on pseudovirus) (HIV-1)
[2] = molecular target: panel of 208 geographically and genetically diverse HIV-1 Env pseudoviruses
[3] = molecular target: panel of 208 geographically and genetically diverse HIV-1 Env pseudoviruses; remark: listed apart in the source
[4] = molecular target: HIV-1 Env of pseudovirus 16936-2.21 (clade C) (HIV-1)
[5] = molecular target: HIV-1 Env of pseudovirus 191821.E6.1 (clade D) (HIV-1)
[6] = molecular target: HIV-1 Env of pseudovirus 246-F3.C10.2 (clade AC) (HIV-1)
[7] = molecular target: HIV-1 Env of pseudovirus CAP256.206.C9 (clade C) (HIV-1)
[8] = molecular target: HIV-1 Env of pseudovirus CH038.12 (clade BC) (HIV-1)
[9] = molecular target: HIV-1 Env of pseudovirus Q259.17 (clade A) (HIV-1)
[10] = molecular target: HIV-1 Env of the BG505 strain (on pseudovirus) (HIV-1); remark: listed apart in the source
[11] = molecular target: HIV-1 Env of pseudovirus ZM233.6 (clade C) (HIV-1)
[12] = molecular target: HIV-1 Env of pseudovirus ZM233.6 (clade C) (HIV-1); remark: listed apart in the source
[13] = molecular target: HIV-1 Env of the BG505 strain (on pseudovirus) (HIV-1); remark: listed apart in the source

Molecule | IC50 [1] [µg/mL] | IC80 [1] [µg/mL] | % of viruses neutralized, IC50 50 µg/mL [2] [%] | Mean IC50 (geometric mean, samples with IC50 < 50 µg/mL) [2] [µg/mL] | Median IC50 (samples with IC50 < 50 µg/mL) [2] [µg/mL] | % of viruses neutralized, IC80 < 1.0 µg/mL [3] [%] | Mean IC80 (geometric mean, samples with IC80 < 50 µg/mL) [3] [µg/mL] | Median IC80 (samples with IC80 < 50 µg/mL) [3] [µg/mL] | also measured
PGT145 N(100l)D (antibody) | 0.003 | 0.01 | – | – | – | – | – | – | –
B1 | 0.01 | 0.253 | 75 | 0.086 | 0.053 | 39 | 0.343 | 0.276 | IC50 (WT) [4]: 5.14 µg/mL; IC50 (WT) [5]: 3.35 µg/mL; IC50 (WT) [6]: 17.4 µg/mL; IC50 (WT) [7]: 3.95 µg/mL; IC50 (WT) [8]: 46.5 µg/mL; IC50 (WT) [9]: 45 µg/mL
B2 | – | – | 83 | 0.04 | 0.025 | 62 | 0.106 | 0.086 | IC50 [10]: 0.009 µg/mL; IC80 [10]: 0.023 µg/mL; fold decrease in IC50 relative to wild type [11]: 63 fold
B3 | – | – | 87 | 0.035 | 0.017 | 63 | 0.078 | 0.058 | IC50 (variant) [12]: 0.001 µg/mL; fold-change in IC50 between wild type and variant [12]: 110 fold; IC50 [13]: 0.004 µg/mL; IC80 [13]: 0.01 µg/mL
